Test results reported in patent US20140206609A1 (Sanofi, published 2014).
*1 amine or outer side, *2 acyl side, *3 side chain or, on linkers, in order; H or OH if unused. Where no end group is shown, it is not given here. Side-chain parts run from the residue outwards. [ ]: non-standard residue; d: D form. The star is where a group is joined. γGlu = O=C(O)[C@H](CCC(=O)[*:2])N[*:1]; Palmitoyl = CCCCCCCCCCCCCCCC(=O)*; Aib = CC(C)(N)C(=O)O

T1: human GIP receptor (human, UniProt P48546 22-466)
T1 sequence (looked up): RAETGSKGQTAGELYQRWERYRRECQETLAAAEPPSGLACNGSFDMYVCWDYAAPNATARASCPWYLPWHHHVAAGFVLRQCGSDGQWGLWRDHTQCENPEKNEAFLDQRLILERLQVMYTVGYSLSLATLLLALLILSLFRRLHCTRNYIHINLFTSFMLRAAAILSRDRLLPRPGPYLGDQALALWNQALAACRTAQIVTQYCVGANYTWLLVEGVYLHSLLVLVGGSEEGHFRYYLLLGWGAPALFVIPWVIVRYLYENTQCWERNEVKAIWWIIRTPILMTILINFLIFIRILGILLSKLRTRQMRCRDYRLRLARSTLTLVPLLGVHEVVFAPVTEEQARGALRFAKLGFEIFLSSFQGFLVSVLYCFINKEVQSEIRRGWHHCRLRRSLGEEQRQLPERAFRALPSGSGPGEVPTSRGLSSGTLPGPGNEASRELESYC

B1: SEQ ID NO: 26 (peptide)
peptide: Y[Aib]EGTFTSDLSIQK([γGlu-Palmitoyl])EKRAAQEFIEWLKNTGPSSGAPPPS-NH2
modifications: N-terminus assumed
SMILES: CCCCCCCCCCCCCCCC(=O)N[C@@H](CCC(=O)NCCCC[C@H](NC(=O)[C@H](CCC(N)=O)NC(=O)[C@@H](NC(=O)[C@H](CO)NC(=O)[C@H](CC(C)C)NC(=O)[C@H](CC(=O)O)NC(=O)[C@H](CO)NC(=O)[C@@H](NC(=O)[C@H](Cc1ccccc1)NC(=O)[C@@H](NC(=O)CNC(=O)[C@H](CCC(=O)O)NC(=O)C(C)(C)NC(=O)[C@@H](N)Cc1ccc(O)cc1)[C@@H](C)O)[C@@H](C)O)[C@@H](C)CC)C(=O)N[C@@H](CCC(=O)O)C(=O)N[C@@H](CCCCN)C(=O)N[C@@H](CCCNC(=N)N)C(=O)N[C@@H](C)C(=O)N[C@@H](C)C(=O)N[C@@H](CCC(N)=O)C(=O)N[C@@H](CCC(=O)O)C(=O)N[C@@H](Cc1ccccc1)C(=O)N[C@H](C(=O)N[C@@H](CCC(=O)O)C(=O)N[C@@H](Cc1c[nH]c2ccccc12)C(=O)N[C@@H](CC(C)C)C(=O)N[C@@H](CCCCN)C(=O)N[C@@H](CC(N)=O)C(=O)N[C@H](C(=O)NCC(=O)N1CCC[C@H]1C(=O)N[C@@H](CO)C(=O)N[C@@H](CO)C(=O)NCC(=O)N[C@@H](C)C(=O)N1CCC[C@H]1C(=O)N1CCC[C@H]1C(=O)N1CCC[C@H]1C(=O)N[C@@H](CO)C(N)=O)[C@@H](C)O)[C@@H](C)CC)C(=O)O
B2: SEQ ID NO: 28 (peptide)
peptide: Y[Aib]QGTFTSDLSIQK([γGlu-Palmitoyl])DKRAAQDFIEWLKAGGPSSGAPPPS-NH2
modifications: N-terminus assumed
SMILES: CCCCCCCCCCCCCCCC(=O)N[C@@H](CCC(=O)NCCCC[C@H](NC(=O)[C@H](CCC(N)=O)NC(=O)[C@@H](NC(=O)[C@H](CO)NC(=O)[C@H](CC(C)C)NC(=O)[C@H](CC(=O)O)NC(=O)[C@H](CO)NC(=O)[C@@H](NC(=O)[C@H](Cc1ccccc1)NC(=O)[C@@H](NC(=O)CNC(=O)[C@H](CCC(N)=O)NC(=O)C(C)(C)NC(=O)[C@@H](N)Cc1ccc(O)cc1)[C@@H](C)O)[C@@H](C)O)[C@@H](C)CC)C(=O)N[C@@H](CC(=O)O)C(=O)N[C@@H](CCCCN)C(=O)N[C@@H](CCCNC(=N)N)C(=O)N[C@@H](C)C(=O)N[C@@H](C)C(=O)N[C@@H](CCC(N)=O)C(=O)N[C@@H](CC(=O)O)C(=O)N[C@@H](Cc1ccccc1)C(=O)N[C@H](C(=O)N[C@@H](CCC(=O)O)C(=O)N[C@@H](Cc1c[nH]c2ccccc12)C(=O)N[C@@H](CC(C)C)C(=O)N[C@@H](CCCCN)C(=O)N[C@@H](C)C(=O)NCC(=O)NCC(=O)N1CCC[C@H]1C(=O)N[C@@H](CO)C(=O)N[C@@H](CO)C(=O)NCC(=O)N[C@@H](C)C(=O)N1CCC[C@H]1C(=O)N1CCC[C@H]1C(=O)N1CCC[C@H]1C(=O)N[C@@H](CO)C(N)=O)[C@@H](C)CC)C(=O)O
B3: SEQ ID NO: 25 (peptide)
peptide: Y[Aib]EGTFTSDLSIQK([γGlu-Palmitoyl])ESRAAQEFIEWLKNTGPSSGAPPPS-NH2
modifications: N-terminus assumed
SMILES: CCCCCCCCCCCCCCCC(=O)N[C@@H](CCC(=O)NCCCC[C@H](NC(=O)[C@H](CCC(N)=O)NC(=O)[C@@H](NC(=O)[C@H](CO)NC(=O)[C@H](CC(C)C)NC(=O)[C@H](CC(=O)O)NC(=O)[C@H](CO)NC(=O)[C@@H](NC(=O)[C@H](Cc1ccccc1)NC(=O)[C@@H](NC(=O)CNC(=O)[C@H](CCC(=O)O)NC(=O)C(C)(C)NC(=O)[C@@H](N)Cc1ccc(O)cc1)[C@@H](C)O)[C@@H](C)O)[C@@H](C)CC)C(=O)N[C@@H](CCC(=O)O)C(=O)N[C@@H](CO)C(=O)N[C@@H](CCCNC(=N)N)C(=O)N[C@@H](C)C(=O)N[C@@H](C)C(=O)N[C@@H](CCC(N)=O)C(=O)N[C@@H](CCC(=O)O)C(=O)N[C@@H](Cc1ccccc1)C(=O)N[C@H](C(=O)N[C@@H](CCC(=O)O)C(=O)N[C@@H](Cc1c[nH]c2ccccc12)C(=O)N[C@@H](CC(C)C)C(=O)N[C@@H](CCCCN)C(=O)N[C@@H](CC(N)=O)C(=O)N[C@H](C(=O)NCC(=O)N1CCC[C@H]1C(=O)N[C@@H](CO)C(=O)N[C@@H](CO)C(=O)NCC(=O)N[C@@H](C)C(=O)N1CCC[C@H]1C(=O)N1CCC[C@H]1C(=O)N1CCC[C@H]1C(=O)N[C@@H](CO)C(N)=O)[C@@H](C)O)[C@@H](C)CC)C(=O)O
B4: SEQ ID NO: 27 (peptide)
peptide: Y[Aib]EGTFTSDLSIQK([γGlu-Palmitoyl])EKRAA[Aib]DFIEWLKNTGPSSGAPPPS-NH2
modifications: N-terminus assumed
SMILES: CCCCCCCCCCCCCCCC(=O)N[C@@H](CCC(=O)NCCCC[C@H](NC(=O)[C@H](CCC(N)=O)NC(=O)[C@@H](NC(=O)[C@H](CO)NC(=O)[C@H](CC(C)C)NC(=O)[C@H](CC(=O)O)NC(=O)[C@H](CO)NC(=O)[C@@H](NC(=O)[C@H](Cc1ccccc1)NC(=O)[C@@H](NC(=O)CNC(=O)[C@H](CCC(=O)O)NC(=O)C(C)(C)NC(=O)[C@@H](N)Cc1ccc(O)cc1)[C@@H](C)O)[C@@H](C)O)[C@@H](C)CC)C(=O)N[C@@H](CCC(=O)O)C(=O)N[C@@H](CCCCN)C(=O)N[C@@H](CCCNC(=N)N)C(=O)N[C@@H](C)C(=O)N[C@@H](C)C(=O)NC(C)(C)C(=O)N[C@@H](CC(=O)O)C(=O)N[C@@H](Cc1ccccc1)C(=O)N[C@H](C(=O)N[C@@H](CCC(=O)O)C(=O)N[C@@H](Cc1c[nH]c2ccccc12)C(=O)N[C@@H](CC(C)C)C(=O)N[C@@H](CCCCN)C(=O)N[C@@H](CC(N)=O)C(=O)N[C@H](C(=O)NCC(=O)N1CCC[C@H]1C(=O)N[C@@H](CO)C(=O)N[C@@H](CO)C(=O)NCC(=O)N[C@@H](C)C(=O)N1CCC[C@H]1C(=O)N1CCC[C@H]1C(=O)N1CCC[C@H]1C(=O)N[C@@H](CO)C(N)=O)[C@@H](C)O)[C@@H](C)CC)C(=O)O
B5: SEQ ID NO: 24 (peptide)
peptide: Y[Aib]EGTFTSDLSIQK([γGlu-Palmitoyl])ESRAA[Aib]DFIEWLKNTGPSSGAPPPS-NH2
modifications: N-terminus assumed
SMILES: CCCCCCCCCCCCCCCC(=O)N[C@@H](CCC(=O)NCCCC[C@H](NC(=O)[C@H](CCC(N)=O)NC(=O)[C@@H](NC(=O)[C@H](CO)NC(=O)[C@H](CC(C)C)NC(=O)[C@H](CC(=O)O)NC(=O)[C@H](CO)NC(=O)[C@@H](NC(=O)[C@H](Cc1ccccc1)NC(=O)[C@@H](NC(=O)CNC(=O)[C@H](CCC(=O)O)NC(=O)C(C)(C)NC(=O)[C@@H](N)Cc1ccc(O)cc1)[C@@H](C)O)[C@@H](C)O)[C@@H](C)CC)C(=O)N[C@@H](CCC(=O)O)C(=O)N[C@@H](CO)C(=O)N[C@@H](CCCNC(=N)N)C(=O)N[C@@H](C)C(=O)N[C@@H](C)C(=O)NC(C)(C)C(=O)N[C@@H](CC(=O)O)C(=O)N[C@@H](Cc1ccccc1)C(=O)N[C@H](C(=O)N[C@@H](CCC(=O)O)C(=O)N[C@@H](Cc1c[nH]c2ccccc12)C(=O)N[C@@H](CC(C)C)C(=O)N[C@@H](CCCCN)C(=O)N[C@@H](CC(N)=O)C(=O)N[C@H](C(=O)NCC(=O)N1CCC[C@H]1C(=O)N[C@@H](CO)C(=O)N[C@@H](CO)C(=O)NCC(=O)N[C@@H](C)C(=O)N1CCC[C@H]1C(=O)N1CCC[C@H]1C(=O)N1CCC[C@H]1C(=O)N[C@@H](CO)C(N)=O)[C@@H](C)O)[C@@H](C)CC)C(=O)O
B6: SEQ ID NO: 23 (peptide)
peptide: Y[Aib]EGTFTSDLSIQK([γGlu-Palmitoyl])ESRAAQDFIEWLKNTGPSSGAPPPS-NH2
modifications: N-terminus assumed
SMILES: CCCCCCCCCCCCCCCC(=O)N[C@@H](CCC(=O)NCCCC[C@H](NC(=O)[C@H](CCC(N)=O)NC(=O)[C@@H](NC(=O)[C@H](CO)NC(=O)[C@H](CC(C)C)NC(=O)[C@H](CC(=O)O)NC(=O)[C@H](CO)NC(=O)[C@@H](NC(=O)[C@H](Cc1ccccc1)NC(=O)[C@@H](NC(=O)CNC(=O)[C@H](CCC(=O)O)NC(=O)C(C)(C)NC(=O)[C@@H](N)Cc1ccc(O)cc1)[C@@H](C)O)[C@@H](C)O)[C@@H](C)CC)C(=O)N[C@@H](CCC(=O)O)C(=O)N[C@@H](CO)C(=O)N[C@@H](CCCNC(=N)N)C(=O)N[C@@H](C)C(=O)N[C@@H](C)C(=O)N[C@@H](CCC(N)=O)C(=O)N[C@@H](CC(=O)O)C(=O)N[C@@H](Cc1ccccc1)C(=O)N[C@H](C(=O)N[C@@H](CCC(=O)O)C(=O)N[C@@H](Cc1c[nH]c2ccccc12)C(=O)N[C@@H](CC(C)C)C(=O)N[C@@H](CCCCN)C(=O)N[C@@H](CC(N)=O)C(=O)N[C@H](C(=O)NCC(=O)N1CCC[C@H]1C(=O)N[C@@H](CO)C(=O)N[C@@H](CO)C(=O)NCC(=O)N[C@@H](C)C(=O)N1CCC[C@H]1C(=O)N1CCC[C@H]1C(=O)N1CCC[C@H]1C(=O)N[C@@H](CO)C(N)=O)[C@@H](C)O)[C@@H](C)CC)C(=O)O

Experiments:
Experiment in all cases: cell-based or functional assay
human GLP-1 receptor = human GLP-1 receptor (human, UniProt P43220 24-463)
human glucagon receptor = human glucagon receptor (human, UniProt P47871 26-477)
human glucagon receptor, sequence (P47871 26-477): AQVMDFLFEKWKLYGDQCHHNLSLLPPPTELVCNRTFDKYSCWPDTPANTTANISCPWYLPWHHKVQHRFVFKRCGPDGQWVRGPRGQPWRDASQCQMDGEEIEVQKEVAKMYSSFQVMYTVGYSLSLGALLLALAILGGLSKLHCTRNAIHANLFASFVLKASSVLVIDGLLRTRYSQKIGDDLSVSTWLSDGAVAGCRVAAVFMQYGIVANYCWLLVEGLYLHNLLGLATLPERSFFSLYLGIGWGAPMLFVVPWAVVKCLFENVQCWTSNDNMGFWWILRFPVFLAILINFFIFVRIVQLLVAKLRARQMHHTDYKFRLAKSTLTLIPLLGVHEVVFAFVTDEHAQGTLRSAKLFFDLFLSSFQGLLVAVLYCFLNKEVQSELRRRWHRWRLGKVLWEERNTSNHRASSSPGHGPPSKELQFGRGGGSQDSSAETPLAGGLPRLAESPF

human GIP receptor = target: T1, human GIP receptor

Binder | EC50 hGLP-1 R [pM] (human GLP-1 receptor) | EC50 hGLUC R [pM] (human glucagon receptor) | EC50 hGIP R [pM] (human GIP receptor)
B1 | 4.9 | 8510 | 19.7
B2 | 3.2 | 9.9 | 10.9
B3 | 9.5 | 20500 | 73.6
B4 | 4 | 6390 | 6.7
B5 | 13.5 | 38900 | 23.5
B6 | 11.8 | 19100 | 79.5
